According to patent US20030027314:

B1: CREB (unmodified) (protein, from a related filing)
chain: MASSPALPTQPAEEAARKREVRLMKNREAARECRRKKKEYVKCLENRVAVLENQNKTLIEELKALKDLYCHKSD
B2: 4heptad-Fos (c-Fos with the basic region replaced by four acidic heptad repeats) (protein)
chain: MASMTGGQQMGRDPDLEQRAEELARENEELEKEAEELEQENAELEAETDQLEDEKSALQTEIANLLKEKEKLEFILAAHRPACKIP
B3: C/EBP bZIP domain (chimeric GCN4-C/EBP protein) (protein)
chain: SEYQPSLFALNPMGFSPLDGSKSTNENVSASTSTAKPMVGQLIFDKFIKTEEDPGKAKKSVDKNSNEYRVRRERNNIAVRKSRDKAKQRNVETQQKVLELTSDNDRLRKRVEQLSRELDTLRGIFRQLPESSLVKAMGNCA
B4: 3heptad-F (protein)
chain: ASMTGGQQMGRDPGGGLARENEELEKEAEELEQENAELEQEVLELESRNDRLRKEVEQLERELDTLRGIFRQLPESSLVKAMGNCA
B5: c-Jun (unmodified) (protein, from a related filing)
chain: PLSPIDMESQERIKAERKRMRNRIAASKCRKRKLERIARLEEKVKTLKAQNSELASTANMLREQVAQLKQKVMNHVNSGCQLMLTQQLQTF
B6: 2heptad-F (protein)
chain: ASMTGGQQMGRDPGGGLEKEAEELEQENAELEQEVLELESRNDRLRKEVEQLERELDTLRGIFRQLPESSLVKAMGNCA
B7: 4heptad-F (protein)
chain: ASMTGGQQMGRDPGGGLEQRAEELARENEELEKEAEELEQENAELEQEVLELESRNDRLRKEVEQLERELDTLRGIFRQLPESSLVKAMGNCA
B8: 4heptadCREB (CREB with 4 heptad repeats appended at the amino terminus) (protein)
chain: ASMTGGQQMGRDPDLEQRAEELARENEELEKEAEELEQENAELENRVAVLENQNKTLIEELKALKDLYCHKSD
B9: 1heptad-F (protein)
chain: ASMTGGQQMGRDPGGGLEQENAELEQEVLELESRNDRLRKEVEQLERELDTLRGIFRQLPESSLVKAMGNCA
B10: 0heptad-F (F zipper with the basic region deleted) (protein)
chain: ASMTGGQQMGRDPGGGTQQEVLELESRNDRLRKEVEQLERELDTLRGIFRQLPESSLVKAMGNCA
B11: VBP-C/EBP chimeric protein (VBP basic region on the C/EBP leucine zipper) (protein)
chain: ASMTGGQQMGRDPLEEKVFVPDEQKDEKYWTRRKKNNVAAKRSRDARRLKENQTQQKVLELTSDNDRLRKRVEQLSRELDTLRGIFRQLPESSLVKAMGNCA
B12: GBF-C/EBP chimeric protein (GBF basic region on the C/EBP leucine zipper) (protein)
chain: PVKDERELKRQKRKQSNRESARRSRLRNEAECEQTQQKVLELTSDNDRLRKRVEQLSRELDTLRGIFRQLPESSLVKAMGNCA

What was measured:
[1] = thermal melting curve, homodimer (FIG. 3)
[2] = thermal melting curve, homodimer (FIG. 4)
[3] = CD thermal melt, homodimer
[4] = CD thermal melt, homodimer, 150 mM KCl
[5] = CD thermal melt, homodimer, low salt (50 mM KCl)
[6] = thermal melting curve, homodimer (FIG. 4); remark: listed apart in the source
[7] = thermal melting curve, homodimer (FIG. 3); remark: listed apart in the source

| Protein | Tm [4] | other results |
| --- | --- | --- |
| B1 | – | Tm [1]: the melting temperature of unmodified CREB homodimerization is 47 °C |
| B2 | – | Tm [2]: homodimerization of acidically modified c-Fos ... had a melting temperature of 25 °C |
| B3 | 49.5 °C | fall of Tm in 50 mM KCl against 150 mM KCl [3]: less stable by 4 °C in 50 mM KCl compared with 150 mM KCl; Tm [5]: 45.8 °C |
| B4 | 28.3 °C | – |
| B5 | – | Tm [6]: homodimerization of unmodified c-Jun had a melting temperature of 29.4 °C |
| B6 | 24.8 °C | – |
| B7 | 15.2 °C | – |
| B8 | – | Tm [7]: (4heptadCREB homodimerization) is 22 °C |
| B9 | 29 °C | – |
| B10 | 30 °C | – |
| B11 | 50 °C | difference of homodimer Tm from C/EBP [3]: as homodimers showed a Tm within 1 °C of C/EBP |
| B12 | 50.2 °C | difference of homodimer Tm from C/EBP [3]: as homodimers showed a Tm within 1 °C of C/EBP |
